Tests used:
[1] = target: recombinant full-length PfCSP (Plasmodium falciparum circumsporozoite protein, strain NF54) (Plasmodium falciparum NF54, UniProt P19597)
NANP6 peptide = target: T1, NANP6 peptide (Plasmodium falciparum NF54); assay: SPR; Carterra LSA; mAb amine-coupled to a CMD200M chip, peptide titrated in 2-fold steps up to 8 ug/mL without regeneration; 25 C; HBSTE (10 mM HEPES pH 7.4, 150 mM NaCl, 3 mM EDTA, 0.01% Tween 20); 1:1 Langmuir model; mean of triplicates; KD includes avidity for antigens with several repeats; conditions: both partners purified
T1 construct: source: synthetic peptide (CPC Scientific)

Chain of recombinant full-length PfCSP (Plasmodium falciparum circumsporozoite protein, strain NF54) (P19597 20-375): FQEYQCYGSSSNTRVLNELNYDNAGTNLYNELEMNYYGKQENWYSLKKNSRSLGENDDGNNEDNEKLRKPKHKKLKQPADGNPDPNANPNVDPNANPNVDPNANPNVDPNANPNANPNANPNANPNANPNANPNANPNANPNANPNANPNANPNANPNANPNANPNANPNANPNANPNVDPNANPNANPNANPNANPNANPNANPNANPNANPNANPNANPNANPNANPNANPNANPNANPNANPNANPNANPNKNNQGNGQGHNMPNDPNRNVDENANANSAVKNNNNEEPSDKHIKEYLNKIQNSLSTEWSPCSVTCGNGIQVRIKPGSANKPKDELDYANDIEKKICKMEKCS

B1: CL-515341 (antibody, V domains shown)
VH: QVYLVESGGGVVQPGKSLRLSCAASGFTFSNYGMHWVRQAPGKGLEWVAIIWHDGSNKFYSDSVRGRFTISRDNSQNTLYLQMNSLSAEDTALYFCAKDIGYSNTWDYFDYWGQGTLVTVSS
VL: EIVLTQSPATLSLSPGERATLSCRASQSVNSFLAWYQQKPGQAPRLLIYDASNRATDIPDRFSGSGSGTDFTLTIRSLEPEDFAVYFCQQRSKWFTFGGGTTVEMK
- binding result [1]: binds

B2: CL-531286 (antibody, V domains shown)
VH: QVQLVESGGGLVQPGRSLRLSCAASGFTFSSSGMHWVRQAPGKGLEWVAVIWYDGSNKFYADSVKGRFTISRDNSKNTLYLQMNSLRAEDTAVYYCARSGYDILTGYFNFFDPWGQGTLVTVSS
VL: EIVLTQSPGTLSLSPGERATLSCRASQSVSSSHLAWYQQKPGQAPRLLIYGASSRATGIPDRFSGSGSGTDFTLTISRLEPEDFAVYYCHQYVSSFTFGPGTKVDFK
- binding result [1]: binds

B3: CL-531325 (antibody, V domains shown)
VH: QVHLVESGGGVVQPGKSLRLSCAASGFTFSNFGMHWVRQAPGKGLEWVALIWYDGSHKFYADSVQGRFTISRDNSKNTLFLQMNSLRAEDTAIYYCAKVISYGSVNYYNNYKYTMDVWGQGTTVTVSS
VL: not shown
- binding result [1]: binds

B4: Ky230 (antibody, V domains shown)
VH: QVQLVESGGGVVQPGRSLRLSCAASGFTFSDYGMHWVRQAPGKGLEWVAIIWHDGSNKYYVDSVKGRFTISRDNSKNTLYLQMNSLRAEDTAVYYCARAASSFGSGFDYWGQGTLVTVSS
VL: DVVMTQSPLSLPVTLGQPASIFCRSSQSLVYSDGNTYLNWFQRRPGQSPRRLIYKVSDRDSGVPDRFSGSGSGTDFTLQISRVEAEDVGVYYCMQGTHWPPTFGQGTKVEIK
notes: source: CHO-3E7, purified (MabSelect SuRe LX)
- Kd (NANP6 peptide): 0.257 nM

B5: CL-531271 (antibody, V domains shown)
VH: QVQLVESGGGEVQPGRSLRLSCAASGFTFSNYGMHWVRQAPGKGLEWVALIWYDGNNKFYADSVNGRFTISRDNSNNTLYLQMNSLRAEDTGVYYCARSFYYVSGNFFDYWGQGTLVTVSS
VL: DIPMTQSPSSVSASVGDRVTITCRASQGISTWLAWYQQKPGKAPKFLIYAASSLQSGVPSRFSGSGSGTDFTLTIYSLQPEDFATYYCQQGNSFPWTFGQGTKVEIK
- binding result [1]: binds

B6: Ky311 (antibody, V domains shown)
VH: QMHLVESGGGVVQPGRSLRLSCVASGFTFNNHGMHWVRQAPGKGLEWVAVIWHDGSNKFYADSVNGRFIVSRDNSKNTLYLHMNSLRAEDTAVYYCARDFFVSGSYNYFDPWGQGTLVTVSS
VL: EIVLTQSPVTLSLSPGERATLSCRASQSVSNYLAWYQQKPGQAPRLLIYDAANRATGTPARFSGSGSGTDFTLTISSLEPEDFAVYFCQQRSKWFTFGPGTKLDIK
notes: as for B4
- Kd (NANP6 peptide): ≤ 0.0233 nM

B7: CL-531237 (antibody, V domains shown)
VH: QVQLVESGGGVVQPGTSLRLSCVASGFTFSNFGIHWFRQAPGKGLEWVSLIWYDGKNKFYAESVTGRFTISRDNSKNTVYLQMSSLRAEDTAVYYCARSYYYDSGNYFDYWGQGTLVTVSS
VL: DIQMTQSPSSVSASVGDRITITCRASQGISSRLAWFQQKPGKAPNFLIYGTSSLQSGVPSRFSGSGSGTDFTLTISSLQPEDSATYYCQQANSYPWTFGQGTKVEIK
- binding result [1]: binds

B8: Ky224 (antibody, V domains shown)
VH: QVQLVESGGGVVQPGRSLRLSCAASGFTFSVYGMHWVRQAPGKGLEWVAVIWYDGSNKIYADSVKGRFTISRDNSKNTLYLQMDSLSAADTAVYYCAKIGSSSFDYWGQGTLVIVSS
VL: DIVMTQTPLSSPVTLGQPASISCRSSQSLVHSNGITYLSWLQQRPGQPPRLLLYEISNRFSGVPDRFSGSGTGTDFTLKISRVEAEDVGVYYCMQTTQFPITFGQGTRLEIK
notes: as for B4
- Kd (NANP6 peptide): 1.34 nM

B9: Ky15.8 (antibody, V domains shown)
VH: QVQLVESGGNVVQPGRSLRLSCTASGFTFSSYGMHWVRQAPDKGLEWVAIIWYDGGNKFYADSVKGRFTISRDNSKDTLYLQMNSLRAEDTAVYYCAKAWYKIDDKYSMDVWGQGTTVTVSS
VL: not shown
notes: as for B4
- Kd (NANP6 peptide): ≤ 0.0312 nM

B10: Ky315 (antibody, V domains shown)
VH: QVQLVESGGGVVQPGRSLRLSCAASGFTLSNYGVHWVRQAPGTGLEWVALIWYDGSNKFYADSVKGRFTISRDNSMDIVYLQMNNLRAEDTALYYCVRPGIAAAGSNYYAMDVWGQGTAVTVSS
VL: EIVMTQSPATLSMSPGERATLSCRASQSVGSDLAWFQQKPGQAPRLLIYGAFTRATGIPARFSGSGSGSEFTLTISSLQSEDFAVYYCQQYNRWWTFGQGTKVEMK
notes: as for B4
- Kd (NANP6 peptide): 0.0723 nM

B11: CL-515284 (antibody, V domains shown)
VH: QVQLVGSGGGVVQSGRSLRLSCAASGFTFSNFGMHWVRQTPDKGLEWLAIIWYDGSHKFYVDSVKGRFTISRDNSMNTLFLQMNSLRAEDTGVYYCVRSWNYADSKYGMDVWGQGTTVTVSS
VL: DIQMTQSPSTLSASVGDRVTITCRASQSISSWLAWYQQKPGKAPNLLIYKASSLESGVPSRFSGSGSGTEFTLTISSLQPDDFATYYCQQYYNYWTFGQGTKVEIK
- binding result [1]: binds

B12: Ky15.10 (antibody, V domains shown)
VH: QVQLVESGGGVVQPGRSLRLSCAASGFTFSNSGMHWVRQVPGKGLEWVAIIWYDGSNKYYADSVKGRFSVSRDNSENTLYLQMSNLRAEDTAVYYCVRAYFDSENLYDYYGMDVWGQGTTVTVSS
VL: DIQMTQSPSTLSASVGDRVTITCRASQSISRWLAWFQKKPGKAPKLLIYTASNLESGVPSRFSGSGSGTEFTLTISSLQPDDFATYYCQQYYNYWTFGQGTKVEVK
notes: as for B4
- Kd (NANP6 peptide): 0.0153 nM

B13: CL-531912 (antibody, V domains shown)
VH: LVQLVESGGGVVQPGRSLRLSCAASGFTFSSSGMHWVRQAPGKGLEWVAIIWYDGSNKFYADSVKGRFTISRDNSKNTLYLQMNSLRAEDTAVYYCARAYVSGSHGDKYGMDVWGQGTTVTVSS
VL: DIQMTQSPSTLSASVGDRVTITCRASQSISSWLAWFQQKPGKAPKLLIYKASSLESGVPSRFSGSGSGTEFTLTINSLQPDDFATYFCQQYNNYWTFGQGTKVEIK
- binding result [1]: binds

B14: CL-532061 (antibody, V domains shown)
VH: QVQLVESGGGVVQPGRSLRLSCVASRFTFSNYGMHWVRQTPGKGLEWVAIIWYDGSNKFYGDSVKGRFTISRDNSRNTLYLQMNNLRAEDTAVYYCARAYDDFVDHDKYGMDVWGQGTTVTVSS
VL: DIQMTQSPSTLSASVGDRVTISCRASQSISIWLAWYQQKSGKAPKLLIYKASRLESGVPSRFSGSGSGTEFTLTISSLQPDDFATYYCQQYNSYWTFGQGTKVEIK
- binding result [1]: binds

B15: Ky15.1 (antibody, V domains shown)
VH: QVQLVESGGGVVQPGRSLRLSCAASGFTFSNFGMHWVRQTPDRGLEWVAIIWFDGSNTFYADSVKGRFTISRDNYKNTLYLQMNSLRAEDTAVYFCARSFYSDSAGSLFDYWGQGTLVTVSS
VL: DIQMTQSPSTLSASVGDRVTITCRASQSISSWVAWYQQKPGKAPKLLIYKASDLETGVPSRFSGSGSGTEFTLTISGLQPDDFVTYYCLQNMRYWTFGQGTKVEIK
notes: as for B4
- Kd (NANP6 peptide): 0.0384 nM

B16: Ky15.11 (antibody, V domains shown)
VH: QVQLVESGGGVVQPGRSLRLSCEASGFTFSNFGMHWVRQTPVKGLEWVAIIWFDGSYKYYTDSVKGRFTISRDNSKNTLYLQMNSLRAEDTAVYYCARARKGQRSDYYGSETSYTFDNWGQGTLVTVSS
VL: DIQMTQSPSTLSASVGDRVTITCRASQSINGWLAWYQQKPGKAPKFLIYKASILESGIPSRFSGSGSGTEFTLTISSLQPDDFATYYCQQYSSYWTFGQGTKVEIK
notes: as for B4
- Kd (NANP6 peptide): ≤ 0.0357 nM

B17: CL-532151 (antibody, V domains shown)
VH: QVQLVESGGGVVQPGGSLRLSCAASGFTFSGSGMHWVRHAPGKGLEWVAIIWYDGSNKFYADSVKGRFTISRDNSRNTLYLQMNSLRAEDTAVYYCARAYVSGNYGDKYGMDVWGQGTTVTVSS
VL: DIQMTQSPSTLSASVGDRVTITCRASQSISNWLAWFQQKPGKAPKLLIYKASSLESGVPSRFSGSGSGTEFTLTINSLQPDDFATYFCQQYNYYWTFGQGTKVEIK
- binding result [1]: binds

B18: CL-531969 (antibody, V domains shown)
VH: QVQLVESGGGVVQPGRSLRLSCAASGFTFSSSGMHWVRQAPGMGLEWVAIIWYDGSNKFYADSVKGRFTISRDNSKNTLYLQMNSLRAEDTAVYYCARAYVSGNYGDNYGMDVWGQGTTVTVSS
VL: DIQMTQSPSTLSASVGDRVTITCRASQSISSWLAWFQQKPGKAPKLLIYKASSLESGVPSRFSGSGSGTEFTLTINSLQPDDFATYFCQQYNYYWTFGQGTKVEIK
- binding result [1]: binds

B19: CL-531383 (antibody, V domains shown)
VH: QVQLVESGGGVVQPGRSLRLSCAASGFTFSSFGMHWVRQTPVKGLEWVALIWYDGSHKFYADSVRGRFIISRDNSKNTLFLQMNSLRAEDTAIYYCAKVINYGSGNYYNNYKYTMDVWGQGTTVTVSS
VL: DIQMTQSPSTLSASVGDRVTITCRASQSISSWLAWYQQKPGKAPKVLIYKASSLESGVPSRFSGSGSGTEFTLTISSLQPDDFATYYCQQYNTYWTFGQGTKVEIK
- binding result [1]: binds

B20: Ky15.7 (antibody, V domains shown)
VH: QVQVVESGGGAVQPGRSLRLSCAASGFTFSNRGMHWVRQTPGKGLEWVAIIWYDGGNKFYADSVKGRFTISRDNSKNTLYLQMNSLRDEDTAVYYCVRAGDWKADKYTMDVWGQGTTVTVSS
VL: DIQMTQSPSTLSASVGDRVTITCRASQSISSWLAWYQQKPGKAPKVLIYQASSLESGVPSRFSGSGSGTEFTLTISSLQPDDFATYYCQQYNSYWTFGQGTKVEIK
notes: as for B4
- Kd (NANP6 peptide): 0.113 nM

B21: Ky15.2 (antibody, V domains shown)
VH: QVLLVESGGGVVQPGTSLRLSCVASGFSFSTYGMHWVRQSPGKGLEWVAIIWYDGGNKFYADSVQGRFTVSRDNSKNTLYLQMNSLRAEDTAVYYCAKAYRTSLDKKYGMDVWGQGTTVTVSS
VL: DIQMTQSPSTLSASVGDRVTITCRASQSIASWLAWYQQKPGKAPKLLIYKASSLESGVPSRFSGSGSGTEFTLTISSLHPDDFATYFCQQFTSYWTFGQGTKVEIK
notes: as for B4
- Kd (NANP6 peptide): 0.0713 nM

B22: Ky15.3 (antibody, V domains shown)
VH: QVQLVESGGGVVQPGRSLRLSCVASGFTFSNAGMHWVRQTPGKGLEWVAIIWYDGSIKYYGESVKGRFTISRDNSKNTLYLEMSSLRAEDTAVYFCVRAYSGSLYDKYGMDVWGQGTTVIVSS
VL: DIQMTQSPSTLSASVGDRVTISCRASQTISTWLAWFQQKPGKAPKLLIYAASSLQSGVPSRFSGSGSGTDFTLTISNLQPDDFATYYCQQFNSYWTFGQGTKVEIK
notes: as for B4
- Kd (NANP6 peptide): ≤ 0.0174 nM
